In publication PMC8519434, “The structure of nontypeable Haemophilus influenzae SapA in a closed conformation reveals a constricted ligand-binding cavity and a novel RNA binding motif” (PLoS ONE, 2021):

Columns and labels:
SapA = biological target: T1, SapA (Haemophilus influenzae, UniProt Q4QL73); test: ITC (stoichiometry fixed to […]), crystal structure by hemin soaking ([…] Å), native PAGE shift; assay type: binding
T1 construct: residues 33 to 560, without the predicted signal peptide

[1] = biological target: T2, SapA (nontypeable Haemophilus influenzae 86-028NP) (UniProt Q4QL73); test: EMSA (agarose, decrease of rRNA bands)
T2 sequence: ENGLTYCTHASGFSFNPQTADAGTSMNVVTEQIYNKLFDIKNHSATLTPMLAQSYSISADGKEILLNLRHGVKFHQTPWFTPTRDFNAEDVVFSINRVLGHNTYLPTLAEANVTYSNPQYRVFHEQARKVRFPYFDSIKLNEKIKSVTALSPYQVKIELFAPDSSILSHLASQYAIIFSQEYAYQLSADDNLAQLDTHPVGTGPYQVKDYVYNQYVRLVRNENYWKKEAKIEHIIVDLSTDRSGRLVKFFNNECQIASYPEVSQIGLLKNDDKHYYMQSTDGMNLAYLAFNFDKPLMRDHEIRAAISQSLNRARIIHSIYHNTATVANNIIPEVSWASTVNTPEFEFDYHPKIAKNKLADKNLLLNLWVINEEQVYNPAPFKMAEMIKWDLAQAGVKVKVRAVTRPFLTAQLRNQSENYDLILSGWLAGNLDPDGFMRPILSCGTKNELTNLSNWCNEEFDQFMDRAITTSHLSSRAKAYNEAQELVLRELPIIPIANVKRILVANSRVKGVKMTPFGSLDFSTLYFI

[2] = system: SapA Q85S R101S (nontypeable Haemophilus influenzae 86-028NP); test: EMSA (agarose, decrease of rRNA bands)
[3] = system: SapA R101S (nontypeable Haemophilus influenzae 86-028NP); test: EMSA (agarose, decrease of rRNA bands)

Compound | Kd (SapA) [µM] | Kd [1] [µM] | Kd [2] [µM] | Kd [3] [µM]
C=CC1=C(C)C2=Cc3c(C=C)c(C)c4[n]3[Fe][n]3c(c(C)c(CCC(=O)O)c3=CC3=NC(=C4)C(C)=C3CCC(=O)O)=CC1=N2 [heme] | 282 ± 18.3 | – | – | –
E. coli DH5alpha rRNA (16S + 23S bands of total RNA) | – | 4.4 | 23 | 7.7
